Measurements reported in patent US20250152742A1, “COMPOSITIONS AND METHODS FOR NEUROLOGICAL DISEASES” (Trames Bio, Inc., priority 2022, published 2025).

System: engineered chimeric receptor SEQ ID NO: 33 and its mutants (human α7-nAChR ligand binding domain / human GlyRα1 ion pore domain) in Lenti-X 293T cells
Test: YFP fluorescence quenching anion reporter plate reader assay (percent quench, EC50)
Type: cell-based
Conditions: for YFP fluorescence quenching using CNL001 (percent quench): receptor named in row; for YFP fluorescence quenching using Varenicline, 3 nM var: ligand Varenicline 3 nM; for YFP fluorescence quenching using Varenicline, 30 nM var: ligand Varenicline 30 nM; for YFP fluorescence quenching using Varenicline, 300 nM var: ligand Varenicline 300 nM; for YFP fluorescence quenching using Varenicline, 500 nM var: ligand Varenicline 500 nM; for YFP fluorescence quenching using Varenicline, 1 uM var: ligand Varenicline 1 uM
How it was run: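 Percent quench compares mean YFP signal over the final 10 s with the 15 s baseline before ligand, added in iodide-containing extracellular solution (pH 7.2). Cells were LX293T carrying a YFP anion reporter, transiently transfected with the channel construct; plates were preincubated 30 min at 37 °C.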

B1: CODA326: engineered receptor: L131A in SEQ ID NO: 33 (protein)
chain: MRCSPGGVWLALAASLLHVSLQGEFQRKLYKELVKNYNPLERPVANDSQPLTVYFSLSLLQIMDVDEKNQVLTTNIWLQMSWTDHYLQWNVSEYPGVKTVRFPDGQIWKPDILLYNSADERFDATFHTNVAVNSSGHCQYLPPGIFKSSCPMDLKNFPMDVQTCKLKFGSWSYGGWSLDLQMQEADISGYIPNGEWDLVGIPGKRSERFYECCKEPYPDVTFTVTMRRRMGYYLIQMYIPSLLIVILSWISFWINMDAAPARVGLGITTVLTMTTQSSGSRASLPKVSYVKAIDIWMAVCLLFVFSALLEYAAVNFVSRQHKELLRFRRKRRHHKSPMLNLFQEDEAGEGRFNFSAYGMGPACLQAKDGISVKGANNSNTTNPPPAPSKSPEEMRKLFIQRAKKIDKISRIGFPMAFLIFNMFYWIIYKIVRREDVHNQ
modifications: synthetic sequence of chimeric LGIC
- YFP fluorescence quenching using CNL001 (percent quench) (1 nM CNL001, first column so headed): 76.424%
- YFP fluorescence quenching using CNL001 (percent quench) (1 nM CNL001, second column so headed): 80.567%
- YFP fluorescence quenching using TC-5619/Bradanicline (percent quench) (3 nM brd (TC-5619/Bradanicline)): 72.24%
- YFP fluorescence quenching using CNL001 (percent quench) (10 nM CNL001, first column so headed): 80.284%
- YFP fluorescence quenching using CNL001 (percent quench) (10 nM CNL001, second column so headed): 81.232%
- YFP fluorescence quenching using TC-6683 (percent quench) (30 nM TC-6683): −16.28%
- YFP fluorescence quenching using TC-5619/Bradanicline (percent quench) (30 nM brd (TC-5619/Bradanicline)): 77.4%
- YFP fluorescence quenching using CNL001 (percent quench) (50 nM CNL001, first column so headed): 81.575%
- YFP fluorescence quenching using CNL001 (percent quench) (50 nM CNL001, second column so headed): 82.544%
- YFP fluorescence quenching using ABT-126 (percent quench) (50 nM abt (ABT-126)): −21.91%
- YFP fluorescence quenching using CNL001 (percent quench) (100 nM CNL001, first column so headed): 81%
- YFP fluorescence quenching using CNL001 (percent quench) (100 nM CNL001, second column so headed): 81.718%
- YFP fluorescence quenching (percent quench) (100 nM CNL002): 27.88%
- YFP fluorescence quenching using ABT-126 (percent quench) (100 nM abt (ABT-126)): −0.5%
- YFP fluorescence quenching using AZD-0328 (percent quench) (100 nM azd0328): 80.39%
- YFP fluorescence quenching using TC-6683 (percent quench) (300 nM TC-6683): −11.73%
- YFP fluorescence quenching using ABT-126 (percent quench) (300 nM abt (ABT-126)): 34.86%
- YFP fluorescence quenching using AZD-0328 (percent quench) (300 nM azd0328): 82.07%
- YFP fluorescence quenching using TC-5619/Bradanicline (percent quench) (300 nM brd (TC-5619/Bradanicline)): 78.02%
- YFP fluorescence quenching using CNL001 (percent quench) (1 uM CNL001, first column so headed): 82.334%
- YFP fluorescence quenching using CNL001 (percent quench) (1 uM CNL001, second column so headed): 81.539%
- YFP fluorescence quenching (percent quench) (1 uM CNL002): 73.79%
- YFP fluorescence quenching using ABT-126 (percent quench) (1 uM abt (ABT-126)): 56.66%
- YFP fluorescence quenching using TC-6683 (percent quench) (3 uM TC-6683): −2.38%
- YFP fluorescence quenching (percent quench) (10 uM ach (acetylcholine)): 7.43%
- YFP fluorescence quenching (percent quench) (30 uM CNL002): 75.89%
- YFP fluorescence quenching using TC-6683 (percent quench) (30 uM TC-6683): −9.77%
- YFP fluorescence quenching using AZD-0328 (percent quench) (30 uM azd0328): 82.23%
- YFP fluorescence quenching using TC-6683 (percent quench) (100 uM TC-6683): 0.97%
- YFP fluorescence quenching (percent quench) (100 uM ach (acetylcholine)): 73.57%
- YFP fluorescence quenching (percent quench) (1 mM ach (acetylcholine)): 71.8%
- YFP fluorescence quenching (percent quench) (3 mM ach (acetylcholine)): 74.49%
- YFP fluorescence quenching using Facinicline, 30 nM fac (ligand Facinicline 30 nM): 69.94
- YFP fluorescence quenching using Facinicline, 300 nM fac (ligand Facinicline 300 nM): 80.07
- YFP fluorescence quenching using Facinicline, 30 uM fac (ligand Facinicline 30 uM): 78.32
- YFP fluorescence quenching using TC-6987, 1 uM tc6987 (ligand TC-6987 1 uM): 73.37
- YFP fluorescence quenching using TC-6987, 10 uM tc6987 (ligand TC-6987 10 uM): 78.18
- YFP fluorescence quenching using TC-6987, 500 uM tc6987 (ligand TC-6987 500 uM): 75.42
- YFP fluorescence quenching using Varenicline, 3 nM var (first column): −5.939
- YFP fluorescence quenching using Varenicline, 3 nM var (second column): −2.294
- YFP fluorescence quenching using Varenicline, 30 nM var (first column): 68.663
- YFP fluorescence quenching using Varenicline, 30 nM var (second column): 70.718
- YFP fluorescence quenching using Varenicline, 300 nM var (first column): 79.88
- YFP fluorescence quenching using Varenicline, 300 nM var (second column): 79.742
- YFP fluorescence quenching using Varenicline, 500 nM var (first column): 79.311
- YFP fluorescence quenching using Varenicline, 500 nM var (second column): 80.029
- YFP fluorescence quenching using Varenicline, 1 uM var (first column): 80.952
- YFP fluorescence quenching using Varenicline, 1 uM var (second column): 79.329
